The record followed here is PMC11362210, “N-carboxyacyl and N-α-aminoacyl derivatives of aminoaldehydes as shared substrates of plant aldehyde dehydrogenases 10 and 7” (Amino Acids, 2024).

Broadly, the Km is the concentration of substrate that gives half-maximal velocity. Usually kcat stands for the number of substrate molecules converted per active site and unit of time at saturation. A word on the kcat/Km: it is the second-order rate constant that governs catalysis at low substrate concentration.

Holding throughout (experiment): purified protein
Substrate in data set [1]: O=CCCCNC(=O)CC(=O)O
The class given is biochemical, Lathyrus oleraceus. The note with it: 2.5 mM NAD+, 0.1 M sodium pyrophosphate, pH 8.1.

Substrate in data set [2]: N[C@@H](Cc1ccccc1)C(=O)NCCCC=O
The format is biochemical, Lathyrus oleraceus.

Substrate in data set [3]: N[C@@H](Cc1ccc(O)cc1)C(=O)NCCC=O
The format is biochemical, Lathyrus oleraceus. The note with it: 2.5 mM NAD+, 0.1 M sodium pyrophosphate, pH 8.1.

Substrate in data set [4]: N[C@@H](Cc1ccccc1)C(=O)NCCC=O
The class given is biochemical, Lathyrus oleraceus. The note with it: 2.5 mM NAD+, 0.1 M sodium pyrophosphate, pH 8.1.

Substrate in data set [5]: O=CCCNC(=O)CC(=O)O
The class given is biochemical, Lathyrus oleraceus. The conditions noted are these: 2.5 mM NAD+, 0.1 M sodium pyrophosphate, pH 8.1.

Substrate in data set [6]: N[C@@H](CCCC=O)C(=O)O
The format is biochemical, Lathyrus oleraceus. The conditions noted are these: 2.5 mM NAD+, 0.1 M sodium pyrophosphate, pH 8.1.

Substrate in data set [7]: O=CCCCNC(=O)CC(=O)O
The class given is biochemical, Zea mays. The note with it: 2.5 mM NAD+, 0.1 M sodium pyrophosphate, pH 8.1.

Substrate in data set [8]: N[C@@H](Cc1ccccc1)C(=O)NCCCC=O
The format is biochemical, Zea mays. The note with it: 2.5 mM NAD+, 0.1 M sodium pyrophosphate, pH 8.1.

Substrate in data set [9]: N[C@@H](Cc1ccc(O)cc1)C(=O)NCCC=O
The class given is biochemical, Zea mays. The note with it: 2.5 mM NAD+, 0.1 M sodium pyrophosphate, pH 8.1.

Substrate in data set [10]: N[C@@H](Cc1ccccc1)C(=O)NCCC=O
The class given is biochemical, Zea mays. The conditions noted are these: 2.5 mM NAD+, 0.1 M sodium pyrophosphate, pH 8.1.

Substrate in data set [11]: O=CCCNC(=O)CC(=O)O
The class given is biochemical, Zea mays. The note with it: 2.5 mM NAD+, 0.1 M sodium pyrophosphate, pH 8.1.

Substrate in data set [12]: N[C@@H](CCCC=O)C(=O)O
The class given is biochemical, Zea mays. The conditions noted are these: 2.5 mM NAD+, 0.1 M sodium pyrophosphate, pH 8.1.

Substrate in data set [13]: O=CCCCNC(=O)CCCC(=O)O
The format is biochemical, Lathyrus oleraceus. The conditions noted are these: 1 mM NAD+, 0.15 M Tris-HCl, pH 9.0.

Substrate in data set [14]: NCCC=O
The class given is biochemical, Lathyrus oleraceus. The conditions noted are these: 1 mM NAD+, 0.15 M Tris-HCl, pH 9.0.

Substrate in data set [15]: NCCCC=O
The format is biochemical, Lathyrus oleraceus. The note with it: 1 mM NAD+, 0.15 M Tris-HCl, pH 9.0.

Substrate in data set [16]: O=CCCNC(=O)CCCC(=O)O
The format is biochemical, Lathyrus oleraceus. The conditions noted are these: 1 mM NAD+, 0.15 M Tris-HCl, pH 9.0.

Substrate in data set [17]: O=CCCCNC(=O)CCC(=O)O
The format is biochemical, Lathyrus oleraceus. The note with it: 1 mM NAD+, 0.15 M Tris-HCl, pH 9.0.

Substrate in data set [18]: O=CCCNC(=O)CCC(=O)O
The format is biochemical, Lathyrus oleraceus. The conditions noted are these: 1 mM NAD+, 0.15 M Tris-HCl, pH 9.0.

Substrate in data set [19]: N[C@@H](Cc1ccc(O)cc1)C(=O)NCCCC=O
The format is biochemical, Lathyrus oleraceus. The conditions noted are these: 1 mM NAD+, 0.15 M Tris-HCl, pH 9.0.

The mark [20] stands for this setting: 2.5 mM NAD+, 0.1 M sodium pyrophosphate, pH 8.1.
Where [21] appears, read: 1 mM NAD+, 0.15 M Tris-HCl, pH 9.0.

B1: PsALDH7 (Lathyrus oleraceus) (protein)
chain: GSDSNNLGFLKEIGLGATNIGSFINGQWKANGPTVHSVNPSTNQVIASVTEATLDDYEEGLRASSEAAKTWRTVPAPKRGEIVRQIGDALRAKLDPLGRLVALEMGKILAEGIGEVQEIIDMCDYSVGLSRQLNGSIIPSERPEHMMFEVWNPLGIVGVITAFNFPCAVLGWNACIALVGGNTVVWKGAPTTPLITVAVTKLIAEVFERNNLPGAIFTALCGGADIGHAIAKDTRIPLVSFTGSSKVGALVQQTVSQRFGKTLLELSGNNAIIVMDDADITLAVRSIFFAAVGTAGQRCTTCRRLYLHESVYANVLEQLTALYKQVKIGNPLEEGTLVGPLHTRSAVENFKNGISAIKSQGGKIVTGGSVLESEGNFVVPTIVEISADAAVVKEELFAPVLYVMKFKDLEEAIALNNSVPQGLSSSIFTQKPSTIFKWIGPSGSDCGIVNVNIPTNGAEIGGAFGGEKATGGGREAGSDSWKQYMRRSTCTINYGSELPLAQGINFG
notes: recombinant
In the case of B1, the Km was determined as 703 ± 72 µM in the data set “purified protein [1]”; 656 ± 55 µM in the data set “purified protein [2]” (setting [20]); 252 ± 45 µM in “purified protein [3]”; 74 ± 7 µM in the data set “purified protein [4]”; 2522 ± 203 µM in “purified protein [5]”; 172 ± 32 µM in the data set “purified protein [6]”. Also, the kcat is 0.13 ± 0.01 s⁻¹ in the data set “purified protein [1]”; 0.04 s⁻¹ in the data set “purified protein [2]” (setting [20]); 0.09 ± 0.01 s⁻¹ in the data set “purified protein [3]”; 0.07 s⁻¹ in the data set “purified protein [4]”; 0.19 ± 0.01 s⁻¹ in “purified protein [5]”; 0.77 ± 0.09 s⁻¹ in “purified protein [6]”. Moreover, the kcat/Km in “purified protein [1]” came to 180 M⁻¹ s⁻¹; in the data set “purified protein [2]” (setting [20]) it was 61 M⁻¹ s⁻¹; in the data set “purified protein [3]”, 360 M⁻¹ s⁻¹; in the data set “purified protein [4]” it was 950 M⁻¹ s⁻¹; in the data set “purified protein [5]” it was 75 M⁻¹ s⁻¹; in the data set “purified protein [6]” it was 4500 M⁻¹ s⁻¹.

B2: ZmALDH7 (Zea mays) (protein)
chain: MGAFAKEEHQFLAELGLAQRNPGAFACGAWGGSGPTVTSTSPTNNQVIAEVVEASVHDYEEGMRACFDAAKTWMAIPAPKRGEIVRQIGDALRAKLHHLGRLVSLEMGKILPEGIGEVQEIIDMCDYAVGLSRQLNGSIIPSERPNHMMMEVWNPLGVVGVITAFNFPCAVLGWNACIALVCGNCVVWKGAPTTPLITIAMTKIVASVLEKNNLPGAIFTSFCGGTEIGQAIALDIRIPLVSFTGSTRAGLMVQQQVSARFGKCLLELSGNNAIIVMDDADIQLAVRSVLFAAVGTAGQRCTTCRRLILHENIYQTFLDQLVEVYKQVRIGDPLEKGTLLGPLHTPASKENFLKGIQTIKSQGGKILFGGSAIESEGNFVQPTIVEITPSAPVVKEELFGPVLYVMKFQSLKEAIEINNSVPQGLSSSIFTKRPDIIFKWLGPHGSDCGIVNVNIPTNGAEIGGAFGGEKATGGGREAGSDSWKQYMRRATCTINYGSELPLAQGINFG
notes: recombinant
On to B2, for which the Km in the data set “purified protein [7]” turned out to be 1493 ± 225 µM; in the data set “purified protein [8]”, 457 ± 55 µM; in “purified protein [9]” it was 216 ± 56 µM; in “purified protein [10]”, 66 ± 12 µM; in “purified protein [11]” it was 1997 ± 142 µM; in “purified protein [12]” it was 191 ± 14 µM. The kcat in “purified protein [7]” was 0.18 ± 0.01 s⁻¹; in “purified protein [8]” it was 0.02 s⁻¹; in “purified protein [9]” it was 0.06 ± 0.01 s⁻¹; in “purified protein [10]”, 0.06 ± 0.01 s⁻¹; in “purified protein [11]”, 0.15 ± 0.01 s⁻¹; in the data set “purified protein [12]”, 0.77 ± 0.04 s⁻¹. Besides, the kcat/Km in the data set “purified protein [7]” came out at 120 M⁻¹ s⁻¹; in “purified protein [8]”, 44 M⁻¹ s⁻¹; in “purified protein [9]”, 280 M⁻¹ s⁻¹; in “purified protein [10]”, 910 M⁻¹ s⁻¹; in the data set “purified protein [11]”, 75 M⁻¹ s⁻¹; in the data set “purified protein [12]”, 4000 M⁻¹ s⁻¹.

B3: PsAMADH (native pea aminoaldehyde dehydrogenase, prevailing isoenzyme 1) (Lathyrus oleraceus) (protein)
chain: MAITVSSRQLFIDGEWRVPILNKRIPNINPSTENIIGDIPAATKEDVDLAVDAAKRAISRKNGRDWSAASGSLRARYLRAIAAKIKEKKDELGKLESIDCGKPLEEALADLDDVVACFEYYAGLAEELDSKQKAPISLPMDTFKSYILKEPIGVVALITPWNYPFLMATWKIAPALAAGCAAILKPSELASVTCLELGEICKEVGLPRGVLNIVTGLGHEAGASLASHPDVDKISFTGSSATGSKIMTTAAQLVKPVSLELGGKSPIVVFEDVDLDKVAEWTVFGCFFTNGQICSATSRLIVHESIAVEFVDKLVKWAENIKISDPLEEGCRLGPIVSEAQYKKVLNCISSAKSEGATILTGGRRPEHLKKGYFVEPTIITDVTTSMQIWREEVFGPVLAVKTFSTEEEAINLANDTHYGLGSAVMSNDLERCERLSKALQAGIVWINCAQPSFIQAPWGGIKRSGFGRELGEWGLENYLSVKQVTRYTSDEPWGWYQPPSKL
notes: native, purified from 7-day-old etiolated pea seedlings
Consider B3, for which the Km in the data set “purified protein [2]” (setting [21]) was 101 ± 10 µM; in the data set “purified protein [13]”, 427 ± 33 µM; in the data set “purified protein [14]” it was 136 ± 11 µM; in “purified protein [15]” it was 103 ± 17 µM; in “purified protein [16]”, 506 ± 92 µM; in the data set “purified protein [17]”, 138 ± 6 µM. The Km in the data set “purified protein [18]” was 513 ± 36 µM; in the data set “purified protein [19]” it was 174 ± 42 µM. Moreover, the kcat in “purified protein [2]” (setting [21]) worked out at 0.17 s⁻¹; in the data set “purified protein [13]” it was 1.49 ± 0.11 s⁻¹; in “purified protein [14]”, 3.36 ± 0.2 s⁻¹; in “purified protein [15]”, 1.34 ± 0.07 s⁻¹; in “purified protein [16]” it was 1.29 ± 0.14 s⁻¹; in the data set “purified protein [17]” it was 1.61 ± 0.07 s⁻¹. Besides, the kcat in the data set “purified protein [18]” was found to be 4.13 ± 0.2 s⁻¹; in the data set “purified protein [19]”, 0.22 ± 0.04 s⁻¹. In addition, the kcat/Km in the data set “purified protein [2]” (setting [21]) worked out at 1700 M⁻¹ s⁻¹; in the data set “purified protein [13]” it was 3500 M⁻¹ s⁻¹; in the data set “purified protein [14]”, 24700 M⁻¹ s⁻¹; in “purified protein [15]”, 13000 M⁻¹ s⁻¹; in “purified protein [16]” it was 2500 M⁻¹ s⁻¹; in “purified protein [17]”, 11700 M⁻¹ s⁻¹. The kcat/Km in the data set “purified protein [18]” turned out to be 8100 M⁻¹ s⁻¹; in “purified protein [19]”, 1300 M⁻¹ s⁻¹.
